In article doi:10.1101/2020.03.19.999276 (bioRxiv, 2020):

Biological target: the molecule itself
Experiment: fluorescence correlation spectroscopy

Row | Protein | stoichiometry N
1 | purified human TRPA1 (hTRPA1) (natural protein, UniProt O75762 1-1119, looked up, Ni-NTA Atto647N on the N-terminal His-tag (labeled copies in FCS)) MKRSLRKMWRPGEKKEPQGVVYEDVPDDTEDFKESLKVVFEGSAYGLQNFNKQKKLKRCDDMDTFFLHYAAAEGQIELMEKITRDSSLEVLHEMDDYGNTPLHCAVEKNQIESVKFLLSRGANPNLRNFNMMAPLHIAVQGMNNEVMKVLLEHRTIDVNLEGENGNTAVIIACTTNNSEALQILLKKGAKPCKSNKWGCFPIHQAAFSGSKECMEIILRFGEEHGYSRQLHINFMNNGKATPLHLAVQNGDLEMIKMCLDNGAQIDPVEKGRCTAIHFAATQGATEIVKLMISSYSGSVDIVNTTDGCHETMLHRASLFDHHELADYLISVGADINKIDSEGRSPLILATASASWNIVNLLLSKGAQVDIKDNFGRNFLHLTVQQPYGLKNLRPEFMQMQQIKELVMDEDNDGCTPLHYACRQGGPGSVNNLLGFNVSIHSKSKDKKSPLHFAASYGRINTCQRLLQDISDTRLLNEGDLHGMTPLHLAAKNGHDKVVQLLLKKGALFLSDHNGWTALHHASMGGYTQTMKVILDTNLKCTDRLDEDGNTALHFAAREGHAKAVALLLSHNADIVLNKQQASFLHLALHNKRKEVVLTIIRSKRWDECLKIFSHNSPGNKCPITEMIEYLPECMKVLLDFCMLHSTEDKSCRDYYIEYNFKYLQCPLEFTKKTPTQDVIYEPLTALNAMVQNNRIELLNHPVCKEYLLMKWLAYGFRAHMMNLGSYCLGLIPMTILVVNIKPGMAFNSTGIINETSDHSEILDTTNSYLIKTCMILVFLSSIFGYCKEAGQIFQQKRNYFMDISNVLEWIIYTTGIIFVLPLFVEIPAHLQWQCGAIAVYFYWMNFLLYLQRFENCGIFIVMLEVILKTLLRSTVVFIFLLLAFGLSFYILLNLQDPFSSPLLSIIQTFSMMLGDINYRESFLEPYLRNELAHPVLSFAQLVSFTIFVPIVLMNLLIGLAVGDIAEVQKHASLKRIAMQVELHTSLEKKLPLWFLRKVDQKSTIVYPNKPRSGGMLFHIFCFLFCTGEIRQEIPNADKSLEMEILKQKYRLKDLTFLLEKQHELIKLIIQKMEIISETEDDDSHCSFQDRFKKEQMEQRNSRWNTVLRAVKAKTHHLEP | 4
2 | Δ1-688 hTRPA1 (hTRPA1 without its N-terminal ankyrin repeat domain) (domain or fragment, human, UniProt O75762 689-1119, looked up, Ni-NTA Atto647N on the N-terminal His-tag (labeled copies in FCS)) MVQNNRIELLNHPVCKEYLLMKWLAYGFRAHMMNLGSYCLGLIPMTILVVNIKPGMAFNSTGIINETSDHSEILDTTNSYLIKTCMILVFLSSIFGYCKEAGQIFQQKRNYFMDISNVLEWIIYTTGIIFVLPLFVEIPAHLQWQCGAIAVYFYWMNFLLYLQRFENCGIFIVMLEVILKTLLRSTVVFIFLLLAFGLSFYILLNLQDPFSSPLLSIIQTFSMMLGDINYRESFLEPYLRNELAHPVLSFAQLVSFTIFVPIVLMNLLIGLAVGDIAEVQKHASLKRIAMQVELHTSLEKKLPLWFLRKVDQKSTIVYPNKPRSGGMLFHIFCFLFCTGEIRQEIPNADKSLEMEILKQKYRLKDLTFLLEKQHELIKLIIQKMEIISETEDDDSHCSFQDRFKKEQMEQRNSRWNTVLRAVKAKTHHLEP | 4
